Reference: the supplement of paper PMC10567573

B1: PLAGL1 (parent)
chain: DPNKMAFGCEECGKKYNTMLGYKR
B2: ZNF207 (parent)
chain: FPSAGQAQAAVQGPVGTDFKPLNS

Variants of: B1
Assay: protein stability index of a GFP-peptide fusion (GPS, HEK-293T) (PSI 1-6); higher = more stable
Conditions: c terminus: a fixed tail appended
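Also: lentivirally expressed fusions sorted by FACS into six bins by GFP to DsRed ratio, PSI derived from sequencing read proportions per bin multiplied by bin number.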

Protein stability index of substitutions, site by site:
Y22: N 2.78, F 1.92, R 3.33, V 2.94, S 3.47, D 3.5, G 3.07, Q 2.72, M 3.01, A 2.53, I 2.8, H 2.18, P 2.02, K 3.72, T 2.24, E 3.26, W 2.9, L 3.15, C 3.69
G21: T 2.08, D 3.13, R 2.94, E 3.33, W 1.95, S 2.87, C 3.09, A 3.01, V 1.81, I 2.26, P 2.64, F 1.85, N 2.55, H 2.56, Y 2.06, M 2.06, Q 2.48, K 3.15
L20: Y 2.1, I 2.54, N 2.26, P 3.11, K 3.26, M 2.72, R 3.46, S 2.59, Q 2.33, V 2.7, W 2.73
R24: L 2.05, F 2.42, E 4.57, D 3.65, P 2.87, S 3.3, A 3.02, C 2.58, V 2.52, N 3.27, K 4.02, G 2.74, M 2.78, Y 2.61, T 2.93, H 3.66, W 1.86, Q 3.34, I 2.05
K23: M 1.58, H 1.98, I 2.95, L 2.73, P 2.31, F 2.03, Y 2.22, C 2.21, R 2.35, W 1.35, N 2.42, E 2.15, S 2.17, A 1.98, V 1.79, T 2.34, G 2.21, D 2.81

Variants of: B2
Assay: as above
Conditions: c terminus: a fixed tail appended

Protein stability index of substitutions, site by site:
Q12: K 3.38, H 3.18, T 3.61, P 3.88, I 2.54, N 3.41, F 2.28, E 3.18, V 3.36, R 3.1, L 2.67, Y 2.46, S 3.36, D 3.69, M 2.83, A 3.13, G 3.37, C 3.51
P14: C 3.04, D 4.01, A 3.47
G13: L 3.69, R 3.5, Q 3.09, T 3.52, H 3.37, M 3.38, V 3.23, C 3.4, F 2.9, Y 3.12, D 3.74, S 3.69, W 2.53, A 3.26, E 3.79, K 3.76, N 3.58, I 3.22, P 3.57
A10: L 3.18, Y 2.95, Q 3.42, F 2.22, P 3.25, K 2.87, T 3.41, W 2.24, S 3.73, N 3.13, V 2.99, G 3.72, M 3.18, R 3.05, E 3.8, I 3.22, D 3.69, C 2.75, H 3.55
Q8: Y 1.71, N 3.57, C 3.23, A 4.04, V 3.31, I 2.76, W 1.89, D 3.87, H 3.35, R 3.47, G 3.77, P 3.38, F 1.48, K 3.89, T 3.47, E 4.04, M 2.72, S 3.68, L 2.11
V11: E 3.84, Q 3.72, G 3.72, W 2.38, H 3.74, L 3.07, N 3.32, I 3.25, R 4.12, Y 3, C 3.1, K 3.45, P 3.62, A 3.73, D 3.68, M 3.36, F 2.58, S 4.27, T 3.58
A7: M 2.93, E 3.94, N 3.94, W 2.44, R 3.26, K 3.49, P 3.51, V 3.36, I 3.15, S 3.87, C 2.47, G 3.58, T 3.49, L 2.27, Y 1.65, H 3.55, F 2.17, D 3.98, Q 3.5
Q6: D 4.37, P 4.23, N 3.62, K 2.76, T 3.96, M 2.8, S 3.65, F 2.5, A 3.72, I 2.72, W 1.47, V 3.41, R 3.01, E 4.16, Y 1.94, G 3.65, C 2.42, L 2.81, H 3.58
G5: T 4.11, M 3.01, A 2.44, S 3.3, D 4.67, L 3.19, K 4.23, W 1.66, V 3.96, C 2.75, E 4.17, H 3.79, P 4.07, I 4.11, R 3.78, N 4.08, Y 1.82, Q 4.19, F 1.51
A4: E 4.58, N 4.08, F 3.82, S 3.27, C 2.52, Y 3.51, I 4.41, Q 3.77, P 4.16, M 3.8, H 3.71, T 4.39, R 3.87, G 2.98, V 3.9, K 3.71, W 2.62, D 4.68, L 4.25
F1: W 4.75, Q 5.11, N 4.98, A 5.04, H 4.89, T 5.3, S 5.11, I 4.79, P 4.82, C 4.68, E 4.98, R 5.18, G 4.88, L 5.03, M 4.96, V 4.92, K 4.65, D 5.56, Y 3.29
S3: D 4.27, H 3.35, L 4.05, E 3.93, T 4, V 3.61, C 2.61, I 4.35, G 3.75, Y 2.34, M 3.43, P 3.63, N 3.08, R 2.83, K 3.17, Q 3.81, A 3.17, W 3.44, F 3.03
A9: D 4.02, L 2.62, R 3.47, S 3.1, N 3.83, K 3.52, E 3.74, G 3.13, Q 4.06, Y 2.13, P 3.53, F 2.02, H 3.31, W 2.45, T 2.99, V 2.93, M 3.06, I 2.86, C 3.37
P2: K 4.27, W 3.65, R 4.43, E 4.71, L 3.41, A 3.46, N 4.11, C 2.7, V 1.97, M 3.93, I 2.89, D 4.73, Y 3.47, G 4.14, S 3.16, H 2.26, Q 3.81, F 3.33, T 2.17
